{"source": "patent US20040198656A1", "about": "“Methods of screening molecules that are used to prevent cardiovascular diseases” (priority 2001, published 2004)", "type_in_all_cases": "in vivo", "key": {"LpL": {"tested_on": "LpL", "assay": "LpL activity in post-heparin plasma (total lipase minus HL)", "details": "human AA4RP transgenic mice, FVB/N background", "method": "(§1) The test was carried out on post-heparin plasma (collected 5 min after heparin injection) from transgenic mice and control mice with a FVB/N genetic background. Total lipase activity was determined by incubation with radiolabelled triolein and in the presence of a cofactor (apo CII). HL activity was determined after incubation of each plasma sample with triolein but in this case in the absence of apo CII and in the presence of 1 M NaCl to eliminate LpL activity. Lipase activity in each plasma sample was then calculated by determining the number of moles of free fatty acid. Finally, LpL activity was calculated by subtracting HL activity from total lipase activity."}, "total lipase": {"tested_on": "total lipase", "assay": "Total lipase activity in post-heparin plasma (radiolabelled triolein, apo CII)", "details": "human AA4RP transgenic mice, FVB/N background", "method": "as §1"}, "[1]": {"assay": "Triglyceride levels in AA4RP transgenic mice on a lipid-rich diet", "method": "Samples from AA4RP transgenic mice or control mice maintained on a lipid-rich diet were diluted 1/3 or 1/5in physiological serum, then assayed for triglycerides against a calibration curve prepared with CFAS lipid calibrator, Ref. 759350 (Boehringer Mannheim GmbH, Germany). The calibration curve covered a concentration range of 16 to 500 μg/ml. 100 μl of each sample dilution or calibration point were deposited in each well of a 96-well titration plate. Next, 200 μl of triglyceride reagent Ref. 701912 (Boehringer Mannheim GmbH, Germany) were added to each well and the plate was incubated at 37° C. for 30 min. Optical densities (OD) were read on a spectrophotometer set at 492 nm. Triglyceride concentrations in each sample were calculated from a standard curve plotted as a linear equation y=ax+b, where y represents OD and x represents triglyceride concentration."}, "apo CIII": {"tested_on": "apo CIII", "assay": "Apo CIII assay by immuno-nephelometry in mice overexpressing human AA4RP", "details": "AA4RP transgenic mice, lipid-rich diet", "method": "Apo CIII in mice overexpressing human AA4RP was assayed by immuno-nephelometry on an ARRAY® immunochemistry system (Beckman Coulter, Villepinte, France). Pooled sera from normolipidic mice were used as standard; the apo CIII concentration therein was 25 μg/ml. A calibration curve from 4 μg/ml to 25 μg/ml was prepared by diluting the standard in 0.01 M potassium phosphate pH 7.2.\nPlasma samples from mice overexpressing human AA4RP or not, maintained on a lipid-rich diet, and plasma samples from knock out homozygous (−/−), heterozygous (+/−) or wild type (+/+) mice were diluted 1/6 or 1/12 in the same conditions as the standard. Forty-two microliters of each calibration point and each sample from the different mice under study were incubated with 42 μl of mouse anti-apo CIII (in a reaction cell containing polyethylene glycol (PEG)). The apo CIII concentration in the sample is directly proportional to the light intensity reflected by the precipitate formed during the antigen-antibody reaction."}, "HL": {"tested_on": "HL", "assay": "HL activity in post-heparin plasma (triolein, no apo CII, 1 M NaCl)", "details": "human AA4RP transgenic mice, FVB/N background", "method": "as §1"}, "[2]": {"assay": "Triglyceride distribution in VLDL, LDL and HDL (Superose 6 FPLC) of plasma", "details": "AA4RP transgenic mice versus control mice, plasma fractions", "method": "The distribution of triglycerides in VLDL, LDL and HDL was studied on 200 μl fractions of plasma from AA4RP transgenic mice or control mice maintained on a lipid-rich diet.\nThe different particles were fractionated on a Pharmacia Superose 6 column integrated in an AKTA FPLC system (Pharmacia Biotech, Umeå, Sweden). The different fractions were eluted with 0.01 M PBS, 0.1 M NaCl, pH 7.2 at a flow rate of 0.2 ml/min. The triglyceride concentration in each fraction was determined as described hereinabove."}}, "data": [{"molecule": "AA4RP: Protein of 366 amino acids (SEQ ID NO 1), apolipoprotein AIV related protein; overexpressed in transgenic mice (protein, listed as Homo sapiens) MASMAAVLTWALALLSAFSATQARKGFWDYFSQTSGDKGRVEQIHQQKMAREPATLKDSLEQDLNNMNKFLEKLRPLSGSEAPRLPQDPVGMRRQLQEELEEVKARLQPYMAEAHELVGWNLEGLRQQLKPYTMDLMEQVALRVQELQEQLRVVGEDTKAQLLGGVDEAWALLQGLQSRVVHHTGRFKELFHPYAESLVSGIGRHVQELHRSVAPHAPASPARLSRCVQVLSRKLTLKAKALHARIQQNLDQLREELSRAFAGTGTEEGAGPDPQMLSEEVRQRLQAFRQDTYLQIAAFTRAIDQETEEVQQQLAPPPPGHSAFAPEFQQTDSGKVLSKLQARLDDLWEDITHSLHDQGHSHLGDP", "values": [{"measurement": "LpL activity versus controls", "setting": "LpL", "value": "significant increase"}, {"measurement": "Total lipase activity versus controls", "setting": "total lipase", "value": "significant increase"}, {"measurement": "Triglyceride levels versus control mice", "setting": "[1]; Student's t test p<0.001", "value": "significantly lower"}, {"measurement": "Triglycerides", "setting": "[1]; mean", "value": 0.361, "unit": "mg/mL"}, {"measurement": "Apo CIII level versus control mice", "setting": "apo CIII", "value": "approximately three times lower"}, {"measurement": "Apo CIII", "setting": "apo CIII; plasma, mean", "value": 30.70, "unit": "µg/mL"}, {"measurement": "HL activity versus controls", "setting": "HL", "value": "significant increase"}, {"measurement": "Accumulation of triglyceride-rich particles after a lipid-rich diet", "setting": "[2]", "value": "not observed"}]}]}
